Target: Flag-tagged chicken p53 (chicken) (UniProt P10360)
UniProt P10360, sequence (P10360 whole entry): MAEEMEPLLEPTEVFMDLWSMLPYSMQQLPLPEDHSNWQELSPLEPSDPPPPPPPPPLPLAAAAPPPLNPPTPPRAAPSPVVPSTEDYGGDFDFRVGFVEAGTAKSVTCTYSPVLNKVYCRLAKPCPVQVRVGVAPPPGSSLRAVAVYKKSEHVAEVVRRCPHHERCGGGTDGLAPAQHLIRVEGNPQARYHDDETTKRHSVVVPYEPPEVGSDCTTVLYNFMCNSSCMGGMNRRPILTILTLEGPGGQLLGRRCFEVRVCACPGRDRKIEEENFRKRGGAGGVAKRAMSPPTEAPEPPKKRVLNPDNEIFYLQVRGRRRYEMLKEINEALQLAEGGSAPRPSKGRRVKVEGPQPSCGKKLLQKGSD

## GFP-tagged Meq (natural protein)
  p53-mediated apoptosis (TUNEL assay, percent of apoptotic cells) in CEFs co-transfected with Flag-p53 and Flag-Meq at 1:10 molar ratio; approximately 46% with Flag-p53 alone: 12 % of cells

Reference: PMC2999606
